This assay addresses MtrD multidrug efflux pump from N. gonorrhoeae strain CR.103 (MtrD_(CR103)) (Neisseria gonorrhoeae) (UniProt Q51073). The assay is described as follows: cryo-EM structure; single-particle cryo-EM of purified MtrD_(CR103) in lipid nanodiscs (MSP 1E3D1), 2 uM, 20 mM Tris-HCl pH 7.5, 100 mM NaCl; one structure with fortuitously bound hydrolyzed ampicillin, one after incubation with 10 uM erythromycin for 2 h; C1 symmetry.

“MtrD multidrug efflux pump from N. gonorrhoeae strain CR.103 (MtrD_(CR103)) (from UniProt Q51073 1-1067) (natural protein)” registered a stoichiometry N of 3.

The values above are taken from PMC7251214.
